B1: Pistol ribozyme (parent)
chain: GGGUCGUUGUUCCAUAAUCGCGUGGAUAUGGCACGCAAGUUUCUACCGGGCACCGUAAAUGUCCGACUGGAGCCGUUCGGGCGGCUAUAAACAGACCUCAGGCCCGAAGCGUGGCGGCACCUGCCGCCGGUGGUAAAAAAGAUCGGAAGAGCACACGUCU

Variants of: B1
Assay: aptazyme ON/OFF ratio, guanine; higher = stronger switching; co-transcriptional cleavage with and without guanine

| Variant | aptazyme ON/OFF ratio |
| --- | --- |
| U7A U8G U10A U11G C12U C13A | 1.15 |
| U7G G9U U10G U11G C12U C13G | 1.05 |
| U8C G9C U10C U11C C13G | 1.04 |
| U7G U8A G9A U10G U11A | 1.01 |
| U7C U8C G9C U11C C13A | 1.28 |
| U7A U8A G9C U11C C12G | 1.1 |
| G9A U10G U11C C13G | 1.12 |
| G9C | 1.06 |
| U7G U8G G9A U10A U11G C12G C13A | 1.14 |
| U7A U8G G9U U10A | 1.18 |
| U8G G9C U11A C12A C13G | 1.05 |
| U7C U8A G9A U11C C13G | 1.02 |
| U7C U8C G9C U10A U11C C13U | 1.1 |
| U7A U8G G9C C12G | 1.29 |
| U7C G9U U10C U11A C12A C13U | 1.15 |
| G9A U10G U11C C12U C13A | 1.26 |
| U7G U8A G9A U10G | 1.49 |
| U8A G9U U10C U11A C12G C13G | 1.12 |
| G9A C12A C13A | 1.45 |
| U8A U11G C13A | 1.03 |
| U7C U8C U10C C13U | 2.08 |
| U8C G9U U11G C12A | 1.08 |
| U7C G9A U10G C12G | 1.28 |
| U7C U8C G9C C13G | 1.09 |

| Variant | aptazyme ON/OFF ratio |
| --- | --- |
| U7C U10C C12U | 3.58 |
| U7C U8G G9U U11C C12A C13U | 1.33 |
| U7G U8A U10A | 1.35 |
| U7A U8G G9A U10A U11G C12U C13U | 1.33 |
| U7G U8A G9U U10C C12U C13A | 1.12 |
| U7C U11A C12U C13G | 1.17 |
| U7A U8G G9A U10A U11G C12A | 1.08 |
| C13G | 1.13 |
| U7G U8A G9A U10C U11C C12G C13G | 1.03 |
| U7G U8G G9A U11G C12G C13G | 1.12 |
| U7A G9U C12G C13A | 1.2 |
| U7A G9U U10A U11G | 1.31 |
| U7C U8C G9A U10A U11C C13U | 1.11 |
| U7C G9U U10A U11C | 1.06 |
| U8G G9U U11C C12U C13U | 1.03 |
| U7C U11A C12U C13A | 1.18 |
| U7G U8A G9C U10G U11G C13U | 1.27 |
| U7A U8G G9A U10A U11A C12U | 1.31 |
| G9C U10C U11C C13U | 1.02 |
| U7C U8A U10G U11C C12U C13G | 1.23 |
| U7A U8G G9A U10G U11G C12A C13G | 1.34 |
| G9A U11C C12G C13A | 1.28 |
| U8C U11G C12A C13G | 1.16 |
| U8A G9A U11G C12U C13U | 1.51 |

| Variant | aptazyme ON/OFF ratio |
| --- | --- |
| U7C G9U U11C C12G | 1.08 |
| U7A G9A U10A U11G C12A | 1.1 |
| U10G U11G C12A C13U | 1.22 |
| U7G U8G G9C C12U C13G | 1.22 |
| U7C U10A C12A C13G | 1.08 |
| U8C G9U U10G U11A C12A | 1.56 |
| U7A G9A U11G C12G | 1.29 |
| U7A G9U U11C C12U C13A | 1.2 |
| U8A G9A U10A C12A | 1.43 |
| U7G U8A G9A U11A C12G | 1.24 |
| G9A U10C U11C C12A C13A | 1.12 |
| U7G U8A G9A U10C U11A C12G C13G | 1.07 |
| U7A G9A U10C U11A C12G | 1.27 |
| U7G U8G G9U U11A C13A | 1.33 |
| U7C U8G U10G C12A | 1.21 |
| U7A C12G C13U | 1.27 |
| U8C G9C U10A C13A | 1.08 |
| U10A U11C C12U | 1.04 |
| U7G U8C G9U U11C C12A | 1.31 |
| U7G U8C G9U U11C C12U C13G | 1.05 |
| U7A G9C C12G C13U | 1.05 |
| U8A G9U U10A U11C C12A C13G | 1.2 |
| U7C U8C G9U U10A U11G C12A C13G | 1.05 |
| U7C G9C U10C U11A C12A C13G | 1.05 |

| Variant | aptazyme ON/OFF ratio |
| --- | --- |
| U7G U8G G9U U11C C12G C13A | 1.14 |
| U7G U8G G9C U10C U11C C12A C13G | 1.14 |
| U7G U8A U10C U11G C12U C13U | 1.42 |
| G9C U10G C12U C13G | 1.15 |
| U7C U8G G9U C12U C13G | 1.33 |
| U7G U8C G9A U10C | 3.27 |
| U7C G9U U10C U11A C12U C13G | 1.04 |
| U7G G9U U10C U11A C12A C13A | 1.22 |
| U7A U8G G9U U10A C12U C13G | 1.36 |
| U8G G9A U10A U11G C12A | 1.08 |
| U7G U8C G9U U10G U11A C12A C13U | 1.38 |
| U7G G9U U10G U11C C12A C13A | 1.14 |
| U7C U8A U10A U11G C13A | 1.15 |
| U8A G9U U10G C12G C13G | 1.15 |
| U7C U8C G9C U10C C12G C13G | 1.04 |
| U7C G9C U10C U11G | 1.07 |
| U7C G9A U10G U11A C12G | 1.21 |
| U7A U8C U10A U11C C13G | 1.05 |
| U8A G9A U10A U11A C12A C13U | 1.27 |
| U7G U8G U11G C12G C13U | 1.09 |
| U7A U8G U10A U11A C12A C13U | 1.12 |
| U7C U10G U11C C12A | 2.07 |
| U7A U8C U10A U11A C12G C13G | 1.31 |
| U7A U10A C12G C13G | 1.25 |

| Variant | aptazyme ON/OFF ratio |
| --- | --- |
| U8C U11G | 1.26 |
| U8G G9A U10G C13G | 1.34 |
| U7A G9A U10C U11A C12U C13G | 1.23 |
| U8C G9A U10G U11C C13A | 1.11 |
| U8G G9A U10C U11A C12G C13A | 1.16 |
| U7C U8G U10A C12A C13G | 1.08 |
| U7A U8A U10G U11A C12A | 1.4 |
| U7G U8A G9A U10A U11G C12U C13U | 1.15 |
| U7C U11G C12A C13G | 1.17 |
| G9A U10G U11G C12U | 1.48 |
| U7C U8G G9C U10A U11G C13A | 1.19 |
| U7G U8A G9A U10G U11A C12A C13G | 1.16 |
| U7C U8C G9A U10G U11A | 1.16 |
| U7G U8C U10C U11G C12A C13A | 1.16 |
| U8A G9C U10G U11C C12U C13A | 1.13 |
| U8G G9U U10A U11A C12A C13G | 1.16 |
| U7G U8G U10C U11C C12U | 1.35 |
| U8G G9A U10A U11C C12U | 1.04 |
| U7C U8A G9U U10A U11G C12U | 1.13 |
| U8A G9U U10A U11C C12G C13G | 1.12 |
| U8A U10C C12U C13G | 1.11 |
| G9U U11C C12A C13A | 1.48 |
| U7G G9C U10C U11C | 1.17 |
| U7A G9C C12A | 1.06 |

| Variant | aptazyme ON/OFF ratio |
| --- | --- |
| U11C C12U C13G | 1.43 |
| U8C G9C U10A U11A C12G | 1.25 |
| U7G U8C G9C U10G C12U | 1.14 |
| U7C G9C U10G U11A C12U C13G | 1.05 |
| U7A U8C G9C U10A U11A C12U C13A | 1.09 |
| U7C U8G G9U C13U | 1.55 |
| U7A G9U U10A C12G C13G | 1.26 |
| U7A U8A G9U U11C C12A C13U | 1.17 |
| U10G U11A C12U C13A | 1.28 |
| U7G G9C U10G U11A C13U | 1.24 |
| U7C U8C U10A U11G C12A C13U | 1.12 |
| U8C U10C | 2.68 |
| U7C U8G G9C U10A U11C C12G | 1.15 |
| U7A U8A G9U U10G U11C C12G | 1.2 |
| U7C U8C U10G C12G C13G | 1.11 |
| U7A G9C U11G C12U | 1.57 |
| U7A U8G G9C C12A C13A | 1.46 |
| U7A U8C U10A U11A C12A C13U | 1.17 |
| U7G U8G U10C U11G C13A | 1.26 |
| U7C U8A G9C U10G U11C C12G | 1.18 |
| U8G G9U U10A C12U | 1.11 |
| U8C G9U U10A U11G C12G C13G | 1.12 |
| U7C G9A U10C U11C C12U C13G | 1.04 |
| U7A U8G G9C U10G U11C C12G C13U | 1.4 |

| Variant | aptazyme ON/OFF ratio |
| --- | --- |
| U7A U8G G9A U10C C13G | 1.1 |
| U7C U8A U10A U11C C12G | 1.13 |
| U7G U8A U10A U11G C12G C13G | 1.11 |
| U7G U8C G9A U10C U11G | 1.5 |
| U7C U8A G9U C12G C13A | 1.21 |
| U7C U8G G9A U10C C12G C13A | 1.13 |
| U7G U8G U10C C12A C13G | 1.27 |
| U7A U8C G9C U10C C12A C13A | 1.03 |
| U7A U8C G9A U10C C12A C13U | 1.13 |
| U7C U8A G9A U10G U11A C12A | 1.15 |
| U8C G9U U11A C12U C13A | 1.36 |
| U7C G9A U10C C12G C13G | 1.26 |
| U7A U8G G9A U10G U11C C12A C13A | 1.2 |
| U7G U8C U10G U11C C12A C13A | 1.38 |
| U7A U10A U11C C13G | 1.03 |
| U8G G9C U10C U11A C12A C13A | 1.06 |
| U7A G9U C12A C13G | 1.21 |
| U7G U8A G9U U10A C12A | 1.05 |
| U7A U8G U10A C13A | 1.09 |
| U7A G9C U10A C12G | 1.13 |
| U7C U8G G9A U11C C12G C13A | 1.05 |
| U7G G9C U10G | 1.89 |
| U7A U8G G9U U11C C12G C13U | 1.27 |
